In one experiment the target is T1, CLASPIN (human, UniProt Q9HAW4-1 1-1339).
T1 construct: human CLASPIN; residues 284-319, 525-540 and 592-618 modelled
As to the kind of experiment: cryo-EM structure; independent replisome preparation that also contained CLASPIN; map EMD-13494 (to be published in a separate study), model PDB 7PFO docked into the density. The note with it: both partners purified.

Another experiment deals with T2, TIMELESS (human, UniProt Q9UNS1 1-1208).
T2 construct: Stood in the structure as a subunit of m3; residues 7-803 modelled (527-684 not visualised)
T2 sequence: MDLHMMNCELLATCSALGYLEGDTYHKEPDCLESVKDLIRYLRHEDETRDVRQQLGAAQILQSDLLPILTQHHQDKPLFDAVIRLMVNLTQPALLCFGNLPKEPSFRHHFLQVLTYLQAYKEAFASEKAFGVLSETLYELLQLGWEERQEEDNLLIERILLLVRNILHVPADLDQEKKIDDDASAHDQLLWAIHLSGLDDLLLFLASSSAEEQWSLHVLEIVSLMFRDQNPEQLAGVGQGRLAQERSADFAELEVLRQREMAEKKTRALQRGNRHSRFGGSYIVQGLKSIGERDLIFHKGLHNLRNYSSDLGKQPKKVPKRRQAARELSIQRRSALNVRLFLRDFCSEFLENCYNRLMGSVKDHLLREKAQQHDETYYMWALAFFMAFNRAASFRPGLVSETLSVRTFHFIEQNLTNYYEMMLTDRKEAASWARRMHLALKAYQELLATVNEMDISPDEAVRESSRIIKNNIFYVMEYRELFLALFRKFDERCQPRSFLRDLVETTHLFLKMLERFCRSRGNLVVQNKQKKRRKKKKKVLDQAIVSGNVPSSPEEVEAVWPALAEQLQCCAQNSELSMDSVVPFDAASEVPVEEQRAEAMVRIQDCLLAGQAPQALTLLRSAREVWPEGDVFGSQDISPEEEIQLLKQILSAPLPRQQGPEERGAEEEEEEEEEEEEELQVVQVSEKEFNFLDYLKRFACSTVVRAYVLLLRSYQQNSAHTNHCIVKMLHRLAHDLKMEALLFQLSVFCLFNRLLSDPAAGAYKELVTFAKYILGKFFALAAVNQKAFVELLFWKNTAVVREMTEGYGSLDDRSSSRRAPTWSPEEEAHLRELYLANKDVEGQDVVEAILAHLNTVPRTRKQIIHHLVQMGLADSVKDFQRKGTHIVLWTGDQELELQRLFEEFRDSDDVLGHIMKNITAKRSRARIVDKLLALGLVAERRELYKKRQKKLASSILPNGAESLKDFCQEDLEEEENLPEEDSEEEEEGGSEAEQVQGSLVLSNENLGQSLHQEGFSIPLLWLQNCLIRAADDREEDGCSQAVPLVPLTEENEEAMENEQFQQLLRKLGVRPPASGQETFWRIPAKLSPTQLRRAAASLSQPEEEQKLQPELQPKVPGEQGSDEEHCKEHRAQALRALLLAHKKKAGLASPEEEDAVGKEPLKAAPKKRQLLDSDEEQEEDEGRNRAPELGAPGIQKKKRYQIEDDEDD
The experiment in a line: cryo-EM structure; replisome reconstituted on fork DNA with AMP-PNP, isolated on a glycerol gradient with glutaraldehyde and BS3; 3.2 Å overall; a sample without CLASPIN solved at 3.4 Å. The note with it: both partners purified.

T1 sequence (Q9HAW4 whole entry, the tested form may be a part): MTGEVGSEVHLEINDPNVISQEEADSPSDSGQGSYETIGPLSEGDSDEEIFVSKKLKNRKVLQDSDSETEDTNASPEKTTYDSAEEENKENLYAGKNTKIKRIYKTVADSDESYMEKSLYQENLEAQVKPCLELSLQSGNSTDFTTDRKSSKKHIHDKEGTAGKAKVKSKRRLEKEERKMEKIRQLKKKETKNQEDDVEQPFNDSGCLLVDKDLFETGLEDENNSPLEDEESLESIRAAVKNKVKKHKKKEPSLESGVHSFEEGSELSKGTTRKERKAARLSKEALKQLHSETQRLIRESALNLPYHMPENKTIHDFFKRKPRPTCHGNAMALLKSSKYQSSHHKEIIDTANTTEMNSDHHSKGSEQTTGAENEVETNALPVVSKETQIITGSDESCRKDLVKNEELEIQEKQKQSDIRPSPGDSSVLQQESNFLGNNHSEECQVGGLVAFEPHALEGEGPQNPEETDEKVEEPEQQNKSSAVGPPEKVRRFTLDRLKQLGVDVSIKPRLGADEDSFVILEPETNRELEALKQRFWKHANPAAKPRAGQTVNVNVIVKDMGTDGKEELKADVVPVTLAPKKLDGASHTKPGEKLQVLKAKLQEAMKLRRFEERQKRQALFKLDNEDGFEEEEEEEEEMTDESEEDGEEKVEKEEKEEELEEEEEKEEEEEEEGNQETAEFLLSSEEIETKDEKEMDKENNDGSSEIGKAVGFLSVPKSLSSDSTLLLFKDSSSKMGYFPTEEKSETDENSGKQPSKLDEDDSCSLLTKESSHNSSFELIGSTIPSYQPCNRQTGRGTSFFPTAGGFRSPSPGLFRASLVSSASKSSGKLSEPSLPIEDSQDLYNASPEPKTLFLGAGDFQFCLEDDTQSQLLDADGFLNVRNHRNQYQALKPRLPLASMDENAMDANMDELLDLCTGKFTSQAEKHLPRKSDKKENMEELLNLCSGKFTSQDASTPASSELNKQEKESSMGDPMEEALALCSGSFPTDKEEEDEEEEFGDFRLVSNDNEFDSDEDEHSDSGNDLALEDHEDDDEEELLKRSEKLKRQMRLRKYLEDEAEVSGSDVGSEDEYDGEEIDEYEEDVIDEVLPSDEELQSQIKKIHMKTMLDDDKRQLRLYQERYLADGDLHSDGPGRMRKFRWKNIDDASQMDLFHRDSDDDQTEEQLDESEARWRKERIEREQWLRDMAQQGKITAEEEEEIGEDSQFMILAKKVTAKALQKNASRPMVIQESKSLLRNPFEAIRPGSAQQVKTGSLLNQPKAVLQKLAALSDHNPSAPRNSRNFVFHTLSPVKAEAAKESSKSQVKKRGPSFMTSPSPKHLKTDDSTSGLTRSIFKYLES

B1: TIMELESS (natural protein, human)
chain: MDLHMMNCELLATCSALGYLEGDTYHKEPDCLESVKDLIRYLRHEDETRDVRQQLGAAQILQSDLLPILTQHHQDKPLFDAVIRLMVNLTQPALLCFGNLPKEPSFRHHFLQVLTYLQAYKEAFASEKAFGVLSETLYELLQLGWEERQEEDNLLIERILLLVRNILHVPADLDQEKKIDDDASAHDQLLWAIHLSGLDDLLLFLASSSAEEQWSLHVLEIVSLMFRDQNPEQLAGVGQGRLAQERSADFAELEVLRQREMAEKKTRALQRGNRHSRFGGSYIVQGLKSIGERDLIFHKGLHNLRNYSSDLGKQPKKVPKRRQAARELSIQRRSALNVRLFLRDFCSEFLENCYNRLMGSVKDHLLREKAQQHDETYYMWALAFFMAFNRAASFRPGLVSETLSVRTFHFIEQNLTNYYEMMLTDRKEAASWARRMHLALKAYQELLATVNEMDISPDEAVRESSRIIKNNIFYVMEYRELFLALFRKFDERCQPRSFLRDLVETTHLFLKMLERFCRSRGNLVVQNKQKKRRKKKKKVLDQAIVSGNVPSSPEEVEAVWPALAEQLQCCAQNSELSMDSVVPFDAASEVPVEEQRAEAMVRIQDCLLAGQAPQALTLLRSAREVWPEGDVFGSQDISPEEEIQLLKQILSAPLPRQQGPEERGAEEEEEEEEEEEEELQVVQVSEKEFNFLDYLKRFACSTVVRAYVLLLRSYQQNSAHTNHCIVKMLHRLAHDLKMEALLFQLSVFCLFNRLLSDPAAGAYKELVTFAKYILGKFFALAAVNQKAFVELLFWKNTAVVREMTEGYGSLDDRSSSRRAPTWSPEEEAHLRELYLANKDVEGQDVVEAILAHLNTVPRTRKQIIHHLVQMGLADSVKDFQRKGTHIVLWTGDQELELQRLFEEFRDSDDVLGHIMKNITAKRSRARIVDKLLALGLVAERRELYKKRQKKLASSILPNGAESLKDFCQEDLEEEENLPEEDSEEEEEGGSEAEQVQGSLVLSNENLGQSLHQEGFSIPLLWLQNCLIRAADDREEDGCSQAVPLVPLTEENEEAMENEQFQQLLRKLGVRPPASGQETFWRIPAKLSPTQLRRAAASLSQPEEEQKLQPELQPKVPGEQGSDEEHCKEHRAQALRALLLAHKKKAGLASPEEEDAVGKEPLKAAPKKRQLLDSDEEQEEDEGRNRAPELGAPGIQKKKRYQIEDDEDD
notes: residues 7-803 modelled, 527-684 not seen; Purified together with TIPIN; written here as a single subunit for the pairwise contacts in the replisome structure
For B1, the binding result in the experiment with CLASPIN was “binds”.

B2: MCM4 (natural protein, human)
chain: MSSPASTPSRRGSRRGRATPAQTPRSEDARSSPSQRRRGEDSTSTGELQPMPTSPGVDLQSPAAQDVLFSSPPQMHSSAIPLDFDVSSPLTYGTPSSRVEGTPRSGVRGTPVRQRPDLGSAQKGLQVDLQSDGAAAEDIVASEQSLGQKLVIWGTDVNVAACKENFQRFLQRFIDPLAKEEENVGIDITEPLYMQRLGEINVIGEPFLNVNCEHIKSFDKNLYRQLISYPQEVIPTFDMAVNEIFFDRYPDSILEHQIQVRPFNALKTKNMRNLNPEDIDQLITISGMVIRTSQLIPEMQEAFFQCQVCAHTTRVEMDRGRIAEPSVCGRCHTTHSMALIHNRSLFSDKQMIKLQESPEDMPAGQTPHTVILFAHNDLVDKVQPGDRVNVTGIYRAVPIRVNPRVSNVKSVYKTHIDVIHYRKTDAKRLHGLDEEAEQKLFSEKRVELLKELSRKPDIYERLASALAPSIYEHEDIKKGILLQLFGGTRKDFSHTGRGKFRAEINILLCGDPGTSKSQLLQYVYNLVPRGQYTSGKGSSAVGLTAYVMKDPETRQLVLQTGALVLSDNGICCIDEFDKMNESTRSVLHEVMEQQTLSIAKAGIICQLNARTSVLAAANPIESQWNPKKTTIENIQLPHTLLSRFDLIFLLLDPQDEAYDRRLAHHLVALYYQSEEQAEEELLDMAVLKDYIAYAHSTIMPRLSEEASQALIEAYVDMRKIGSSRGMVSAYPRQLESLIRLAEAHAKVRLSNKVEAIDVEEAKRLHREALKQSATDPRTGIVDISILTTGMSATSRKRKEELAEALKKLILSKGKTPALKYQQLFEDIRGQSDIAITKDMFEEALRALADDDFLTVTGKTVRLL
notes: MCM4, human; Stood in the structure as a subunit of m1; source: Hi5 insect cells, purified as a subunit of hsCMG
Take B2: the binding result with TIMELESS is on record as “binds”.

(Values after publication PMC8634136 (The EMBO Journal, 2021).)
